In patent US6306832, “Peptide antiestrogen compositions and methods for treating breast cancer” (University of California):

Target: estrogen receptor alpha (ER), purified recombinant (Homo sapiens, UniProt P03372 P03372:1-595)
Assay: EMSA; 60 nM ER, 100 nM estradiol, HEPES pH 7.5, 100 mM KCl, 1 mM EDTA, poly(dI-dC), 4 C; competed by 100x unlabelled ERE; blocked by 0.5 uM pY8/pY10/mY8 peptides, not by conY
Conditions: tags: Panvera (Madison, WI); chain copies: 2 (homodimer, stated); label: 32P 5'-end (polynucleotide kinase)
Experimental: FIG. 6B. Purified human ER (60 nM) was incubated with control solution (CON), a 100-fold molar excess of unlabelled ERE (100 ERE) or with peptides at 250 nM or 500 nM. ER was incubated with peptides for 15 min at 4° C. followed by addition of 100 nM estradiol-17β and ^32P-ERE. Peptides included phosphotyrosyl-octapeptide (pY8), control non-phosphorylated octapeptide (conY), malonyltyrosyl-octapeptide(mY8), phosphotyrosine amino acid alone (pY), as an additional control, and a phosphotyrosyl-decapeptide, N-Val-Pro-Leu-pTyr-Asp-Leu-Leu-Leu-Glu-Met-C (pYl 0) (SEQ ID NO:3). Although not shown, the effect of conY at 500 nM was the same as that shown at a concentration of 250 nM.
Interaction of ER with nuclear ERE is prerequisite for activation of transcription. To assess the specific binding of ER with ERE, purified recombinant human ER from MCF-7 breast cancer cells were used. A double-stranded 27-bp probe (5'-[…]-3') (SEQ ID NO:12) encoding the Xenopus vitellogenin A_2 ERE was ^32P-end-labeled with polynucleotide kinase. Gel mobility shift assays for the human ER were performed as described (Arnold et al., 1995a; Arnold and Notides, 1995; Arnold et al., 1995b). […]

estrogen receptor alpha (ER), purified recombinant, sequence (P03372 whole entry, one chain of several): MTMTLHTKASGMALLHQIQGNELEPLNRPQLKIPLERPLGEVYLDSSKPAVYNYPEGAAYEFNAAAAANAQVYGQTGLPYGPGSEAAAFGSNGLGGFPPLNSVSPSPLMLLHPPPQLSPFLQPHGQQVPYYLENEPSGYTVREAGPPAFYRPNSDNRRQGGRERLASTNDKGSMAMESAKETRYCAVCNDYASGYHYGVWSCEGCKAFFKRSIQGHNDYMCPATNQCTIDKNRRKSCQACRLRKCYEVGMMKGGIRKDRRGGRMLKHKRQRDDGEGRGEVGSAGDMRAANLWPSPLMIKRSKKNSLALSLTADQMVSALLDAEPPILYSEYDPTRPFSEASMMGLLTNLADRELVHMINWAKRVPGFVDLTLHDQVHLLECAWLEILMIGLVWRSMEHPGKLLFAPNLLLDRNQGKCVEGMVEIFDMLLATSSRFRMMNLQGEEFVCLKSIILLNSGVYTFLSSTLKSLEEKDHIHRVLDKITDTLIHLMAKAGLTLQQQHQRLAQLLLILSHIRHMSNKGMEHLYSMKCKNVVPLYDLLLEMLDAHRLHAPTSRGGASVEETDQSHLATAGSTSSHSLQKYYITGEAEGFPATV

B1: vitellogenin A2 ERE 27-bp probe (dsDNA)
DNA 1: GATCCTAGAGGTCACAGTGACCTACGA
DNA 2: TCGTAGGTCACTGTGACCTCTAGGATC
  binding result: binds
